Paper PMC3597819 (The Journal of Biological Chemistry, 2013)

Target: the molecule itself
Assay: crystal structure

B1: KLHL11 BTB-BACK domains (residues 67-340) (domain or fragment, human, UniProt Q9NVR0 67-340, looked up)
chain: EAEDFECSSHCSELSWRQNEQRRQGLFCDITLCFGGAGGREFRAHRSVLAAATEYFTPLLSGQFSESRSGRVEMRKWSSEPGPEPDTVEAVIEYMYTGRIRVSTGSVHEVLELADRFLLIRLKEFCGEFLKKKLHLSNCVAIHSLAHMYTLSQLALKAADMIRRNFHKVIQDEEFYTLPFHLIRDWLSDLEITVDSEEVLFETVLKWVQRNAEERERYFEELFKLLRLSQMKPTYLTRHVKPERLVANNEVCVKLVADAVERHALRAENIQSGT
  stoichiometry N: 2
